Sequences and labels used below:
B1: RILPL2-GFP WT, full length [human] / HA-Rab8a in MLi-2 treated cells (LRRK2 inhibited) [Homo sapiens (Human).] (parent)
chain 1: MEEPPVREEEEEEGEEDEERDEVGPEGALGKSPFQLTAEDVYDISYLLGRELMALGSDPRVTQLQFKVVRVLEMLEALVNEGSLALEELKMERDHLRKEVEGLRRQSPPASGEVNLGPNKMVVDLTDPNRPRFTLQELRDVLQERNKLKSQLLVVQEELQCYKSGLIPPREGPGGRREKDAVVTSAKNAGRNKEEKTIIKKLFFFRSGKQT
chain 2: MAKTYDYLFKLLLIGDSGVGKTCVLFRFSEDAFNSTFISTIGIDFKIRTIELDGKRIKLQIWDTAGQERFRTITTAYYRGAMGIMLVYDITNEKSFDNIRNWIRNIEEHASADVEKMILGNKCDVNDKRQVSKERGEKLALDYGIKFMETSAKANINVENAFFTLARDIKAKMDKKLEGNSPQGSNQGVKITPDQQKRSSFFRC

Our source for the ratio to parent values is article PMC8204342, “Dual arginine recognition of LRRK2 phosphorylated Rab GTPases” (Biophysical Journal, 2021).

The variants in the assay derive from B1. The assay is described as follows: co-immunoprecipitation (GFP binder Sepharose) with LI-COR immunoblot quantification. The following applies: with HA-Rab8a in MLi-2 treated cells (LRRK2 inhibited) [Homo sapiens (Human).]; HEK293 cells, Flag-LRRK2[Y1699C] + HA-Rab8a co-expressed; 500 nM MLi-2 for 90 min; parent: 0.11; read off a plot. (Immunoblotting shows a protein as a band on a membrane.)
Turning to chain 1 D124N, the ratio to parent came to 0.09.
To chain 1 D124A belongs 0.06; to chain 1 D127A, 0.13.
Take chain 1 D127N: the ratio to parent amounted to 0.12.
To chain 1 T126A belongs 0.12; to chain 1 P128A, 0.11.
